{"source": "patent US10874712B2", "about": "“Methods, compounds and compositions for modulating blood brain barrier integrity and re-myelination” (University Health Network, priority 2015, dated 2020)", "key": {"[1]": {"target": "T1, Neogenin (Homo sapiens, UniProt Q92859)", "T1 construct": "His-tagged proteins (2.5 μg/mL of extracellular-Neogenin or sRGMa or sRGMc) were then coated onto each well; His tag (coated format); Alkaline phosphatase (AP) fusion (solution format, Ec-Neogenin-AP); made in house", "T1 sequence (Q92859 34-1105 limits assumed)": "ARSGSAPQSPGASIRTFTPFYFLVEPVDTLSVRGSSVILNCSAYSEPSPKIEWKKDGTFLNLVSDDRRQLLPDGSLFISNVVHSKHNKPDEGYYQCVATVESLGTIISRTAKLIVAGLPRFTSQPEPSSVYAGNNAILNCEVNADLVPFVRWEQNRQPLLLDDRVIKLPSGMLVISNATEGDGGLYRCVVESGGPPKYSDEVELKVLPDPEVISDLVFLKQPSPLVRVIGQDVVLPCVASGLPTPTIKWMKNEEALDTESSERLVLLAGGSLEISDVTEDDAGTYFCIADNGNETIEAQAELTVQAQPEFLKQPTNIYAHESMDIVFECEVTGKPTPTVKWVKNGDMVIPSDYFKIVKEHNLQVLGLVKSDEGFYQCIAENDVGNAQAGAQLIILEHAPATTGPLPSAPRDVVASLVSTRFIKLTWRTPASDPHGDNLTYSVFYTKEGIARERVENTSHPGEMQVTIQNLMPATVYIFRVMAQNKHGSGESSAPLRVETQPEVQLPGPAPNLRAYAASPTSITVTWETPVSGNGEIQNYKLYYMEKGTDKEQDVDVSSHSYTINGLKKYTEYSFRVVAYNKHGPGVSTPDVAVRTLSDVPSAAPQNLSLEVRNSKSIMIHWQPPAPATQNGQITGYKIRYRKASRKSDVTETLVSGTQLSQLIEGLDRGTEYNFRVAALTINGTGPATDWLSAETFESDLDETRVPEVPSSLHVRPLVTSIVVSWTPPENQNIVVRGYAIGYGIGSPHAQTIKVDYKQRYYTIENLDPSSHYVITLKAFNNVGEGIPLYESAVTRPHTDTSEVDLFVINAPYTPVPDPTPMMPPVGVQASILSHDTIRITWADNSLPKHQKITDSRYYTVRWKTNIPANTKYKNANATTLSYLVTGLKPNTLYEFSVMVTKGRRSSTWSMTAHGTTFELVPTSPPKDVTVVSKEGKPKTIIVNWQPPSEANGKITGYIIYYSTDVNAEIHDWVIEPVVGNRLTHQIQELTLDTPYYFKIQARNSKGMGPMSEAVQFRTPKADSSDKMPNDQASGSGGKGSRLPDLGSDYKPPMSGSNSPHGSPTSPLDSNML", "experiment": "In vitro competition binding assay (AP-tagged proteins)", "details": "competition assay, FIG. 6C", "description": "(C) Binding of Neogenin to bovine serum albumin (Neogenin+BSA), to RGMa (Neogenin+RGMa), and to RGMc (Neogenin+RGMc) in RGMa-AP and in RGMc-AP. Constructs overexpressing His-tagged sRGMa, sRGMc and the extracellular domains of Neogenin (Ec-Neogenin) were coated onto Poly-L-Lysine coated wells. Alkaline Phosphatase (AP)-tagged proteins (EC-Neogenin or RGMa or RGMc) were then added to each well and incubated at 37° C. for 1 h. Each well was washed and equilibrated with AP developing buffer (100 mM NaHCO3, 1 mM MgCl2). The reaction was initiated using AP developing buffer supplemented with p-nitrophenyl phosphate and then stopped following color development by adding 50 μl (0.1M) NaOH. The absorbance of each reaction was measured using a microplate autoreader at 405 nm as described in the Examples. (D) Binding of Neogenin-AP to bovine serum albumin (Neogenin-AP+BSA), to RGMa (Neogenin-AP+RGMa), and to RGMc (Neogenin-AP+RGMc). Competition assay was performed as described in the Examples and above but in which the constructs were reversed.\nUsing a 96-well microtiter plate (Corning), wells coated with 100 μl (10 μg/mL) of Poly-L-Lysine (Sigma-Aldrich) incubated at 4° C. overnight were then washed 3× with 100 μl of PBST (+0.02% Tween-20). […] The absorbance of each reaction was measured using a microplate autoreader (BioTek EL311 AutoReader) at 405 nm."}, "[2]": {"tested_on": "blood brain barrier of mice", "experiment": "BBB permeability, Texas red dye leakage by widefield imaging", "type": "in vivo, mouse", "details": "mice injected with RGMa plus the agent", "method": "Mice were treated with RGMa (70 ug), RGMa (70 ug)+RGMc (70 ug), or Vehicle (1% BSA) 18 h prior to widefield imaging (100-300 ms exposure) prior to and following intravenous injection of Texas Red dye (0.5 mg) over time. […] (B) Quantification of the leakage of Texas Red dye (measured as the number of leakage sites/mm^2).\nBBB integrity was assessed in mice treated with PBS (Vehicle), RGMa, RGMc, RGMa+ immunoglobulin domain of Neogenin (4Ig). Widefield imaging was then carried out under a Olympus microscope (BX6 1WI) prior to and following the injection of Texas red dye (100 uL, I.V., 5 mg/ml) using 100-300 ms exposure. Recording was performed from 0 min to 35 min following injection. Texas dye leakage was also assessed in RGMc knockout (KO) and wild type (WT) mice. The leakage of Texas-red dye was quantified by a blind experimenter measuring the number of leakage sites/mm^2. (A) Representative images of Texas red dye: PBS (Vehicle), RGMa, RGMa+RGMc and RGMa+4Ig (immunoglobulin domain of Neogenin). Quantification of the leakage of Texas Red dye in animals treated with (B) PBS (Vehicle), RGMa or RGMa+RGMc or in RGMc KO and WT mice or (C) PBS (Vehicle), RGMa, RGMa+RGMc or RGMa+4Ig.\nMice injected with BSA, RGMc, RGMa, or RGMa+RGMc. […] Leakage of Texas red dye was quantified by a blind experimenter measuring the number of leakage sites/mm^2. […]"}, "[3]": {"tested_on": "Claudin 5 in b.End3 cells", "experiment": "Claudin 5 expression in endothelial cells by Western blot", "type": "cell-based, mouse", "details": "incubation with RGM proteins, vs PBS", "method": "Cells were pretreated for 6 h with PBS, RGMc, RGMa or RGMc+RGMa. Western blotting was performed on the lysates with Claudin-5 and GAPDH antibodies.\nNext, the BBB permeability was assessed by injecting mice with BSA, RGMa, RGMa plus RGMc and subsequently followed by assessment of Texas dye leakage using widefield imaging as an indication of BBB integrity. […] Thus, Claudin 5 expression following RGMa/c treatments of murine-derived brain endothelial cells (b.End3) was studied. B.En3 cells were grown up to 80% confluency and were treated with overnight incubation with RGM proteins."}, "[4]": {"tested_on": "mice with passively induced EAE", "experiment": "Adoptive transfer EAE, infiltration of CellVue-labelled cells into spinal cord", "type": "in vivo, mouse", "details": "treated every 3 days; sacrificed day 8 after transfer; vs PBS", "method": "Briefly, donor animals were immunized with 100 ug MOG(35-55) and sacrificed at day 10. Splenocytes were harvested and re-stimulated for 3 days with 33 ug/mL MOG(35-55) in the presence of 20 ng/ml rmIL-23. Cells were then labelled with CellVue Maroon and injected into recipient animals treated with RGMc or vehicle as well as PTx on day 0 and day 2. Recipient animals were treated every 3 days and sacrificed on day 8 and spinal cords sectioned for immunofluorescence staining.\nHaving shown that RGMc levels regulate the extravasation of molecules through the BBB, its role on cellular infiltration was evaluated. To do so, adaptive transfer using spleenocyte cells from MOG treated animals was performed. After collection of splenocyte cells were re-stimulated for 3 days with MOG, stained with Cellvue Maroon and injected into recipient mice treated with pertussis toxin. Following injection, animals received either PBS (Control) or RGMc every 3 days. Eight days after transfer animals were sacrificed and cellular infiltration was monitored using Cellvue-reporter. […] Thus, treatment with RGMc prevented T cell infiltration towards the CNS."}, "[5]": {"tested_on": "optic nerves of adult mice", "experiment": "Optic nerve crush and regeneration model (GAP43 staining)", "type": "in vivo, mouse", "details": "1 μg/ml intraocularly at 3 and 10 days after injury; day 21; vs control proteins", "method": "Optic nerve crush experiments were performed on animals and recovery assessed by staining for axonal fibres. The optic nerves of adult mice were crushed using fine self-closing forceps. sRGMc (1 μg/ml) or control solution was injected intraocularly at 3 and 10 days after injury. Animals were sacrificed at day 21 and optic nerves were dissected and fixed in 4% PFA. The optic nerves were sectioned longitudinally at 14 microns and stained with GAP43 antibody to stain newly regenerating axons."}}, "note": "Entries after “also recorded” stand apart in the source; their conditions may differ.", "data": [{"molecule": "sRGMc: truncated form of RGMc with the GPI anchor sequence removed, released as a soluble protein (SEQ ID NOs: 1 and 3) (protein, listed as Homo sapiens) CKILRCNAEYVSSTLSLRGGGSSGALRGGGGGGRGGGVGSGGLCRALRSYALCTRRTARTCRGDLAFHSAVHGIEDLMIQHNCSRQGPTAPPPPRGPALPGAGSGLPAPDPCDYEGRFSRLHGRPPGFLHCASFGDPHVRSFHHHFHTCRVQGAWPLLDNDFLFVQATSSPMALGANATATRKLTIIFKNMQECIDQKVYQAEVDNLPVAFEDGSINGGDRPGGSSLSIQTANPGNHVEIQAAYIGTTIIIRQTAGQLSFSIKVAEDVAMAFSAEQDLQLCVGGCPPSQRLSRSERNRRGAITIDTARRLCKEGLPVEDAYFHSCVFDVLISGDPNFTVAAQAALEDARAFLPDLEKLH", "values": [{"measurement": "interference with RGMa binding to Neogenin", "setting": "[1]", "value": "interferes with RGMa for its binding to Neogenin"}, {"measurement": "RGMa-induced disruption of BBB integrity (Texas Red dye leakage)", "setting": "[2]", "value": "suppressed; also recorded: ameliorated"}, {"measurement": "Claudin 5 levels", "setting": "[3]", "value": "did affect Claudin5 levels"}, {"measurement": "accumulation of Cellvue+ cells within the spinal cord", "setting": "[4]", "value": "did not show accumulation"}, {"measurement": "regeneration of axonal fibres at the site of injury (GAP43)", "setting": "[5]", "value": "promote the regeneration of axonal fibres"}]}]}
